Test results from patent publication US20230140200A1, “COMPOSITIONS AND METHODS FOR DETECTING CELLS UNDERGOING FERROPTOSIS USING AN ANTIBODY” (THE TRUSTEES OF COLUMBIA UNIVERSITY IN THE CITY OF NEW YORK, priority 2020, published 2023).

What was measured:
[1] = target: T1, transferrin receptor protein 1 (Homo sapiens, UniProt P02786); test: Immunoprecipitation-mass spectrometry antigen identification; assay type: binding; settings: HT-1080 cell lysate, IP-MS
T1 construct: endogenous in cells; host or cells: HT-1080
T1 sequence (P02786 whole entry): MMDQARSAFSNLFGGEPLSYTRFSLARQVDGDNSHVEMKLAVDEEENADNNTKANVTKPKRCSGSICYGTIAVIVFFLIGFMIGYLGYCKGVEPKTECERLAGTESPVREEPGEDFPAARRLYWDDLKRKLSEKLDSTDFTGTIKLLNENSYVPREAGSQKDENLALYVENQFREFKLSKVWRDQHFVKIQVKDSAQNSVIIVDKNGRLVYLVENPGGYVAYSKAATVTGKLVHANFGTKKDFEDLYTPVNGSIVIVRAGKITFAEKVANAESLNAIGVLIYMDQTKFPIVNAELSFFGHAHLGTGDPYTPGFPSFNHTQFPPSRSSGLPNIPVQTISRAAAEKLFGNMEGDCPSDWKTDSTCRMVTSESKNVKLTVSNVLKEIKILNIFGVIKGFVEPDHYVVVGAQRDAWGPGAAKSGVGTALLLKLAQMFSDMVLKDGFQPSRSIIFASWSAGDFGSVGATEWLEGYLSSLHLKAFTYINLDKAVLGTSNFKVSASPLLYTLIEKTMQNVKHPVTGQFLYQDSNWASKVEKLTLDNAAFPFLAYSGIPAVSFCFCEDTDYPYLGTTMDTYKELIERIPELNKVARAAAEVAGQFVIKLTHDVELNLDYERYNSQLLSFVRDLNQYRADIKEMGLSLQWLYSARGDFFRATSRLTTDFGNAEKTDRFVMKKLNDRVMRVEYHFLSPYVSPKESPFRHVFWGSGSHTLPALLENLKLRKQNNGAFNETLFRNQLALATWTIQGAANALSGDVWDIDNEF
Description: HT-1080 cells were seeded in DMEM (Corning 10-013-CM) and 10% Hi-FBS with 1% penicillin and streptomycin (PS) with 1% MEM Non-Essential Amino Acids Solution (100×) (Thermo Fisher Scientific 11140-076) 16 h prior to use. DMSO or 1 μM of RSL3 was added and incubated for 4 h. Following treatment, the medium was aspirated from each dish and cells were washed twice with PBS. Cells were lysed with 70 μl lysis buffer (RIPA buffer from ThermoFisher, cat. 89900, 1 mM EDTA, 1 mM PMSF, 1× Halt™ protease inhibitor cocktail from ThermoFisher, cat. 78430 and 1× Halt™ phosphatase inhibitor cocktail from ThermoFisher, cat. 78426). Unlysed cells and debris were pelleted for 15 min at 16,000×g at 4° C. The samples were incubated with 10 μg of 3F3 FMA overnight at 4° C. with shaking. The next day, Thermo Scientific Pierce Protein AG Magnetic Beads (Thermo Fisher Scientific 88802) were washed with TBS with 0.05% Tween 20 (wash buffer) and then were incubated with sample/antibody mixture for 1 h with mixing. The beads were collected with a magnetic stand and then washed with wash buffer for three times. The beads were used for mass spectrometry.
Trypsin digestion was performed overnight at 37° C. […] CID fragmentation was applied with 35% collision energy and resulting fragments were detected using the rapid scan rate in the ion trap. […]
Raw mass spectrometric data were analyzed using MaxQuant v. […]

SK-LMS-1 cells = test: Immunofluorescence in SK-LMS-1 cells; assay type: cell-based, human; settings: 1 μM RSL3, 4 h
human brain tissues = test: Staining of post-mortem Huntington's disease and control brain tissues; settings: HD and control groups
Description: (§1) FIGS. 12A-12B show 3F3 FMA staining in human Huntington's disease brains and mouse tissues. In FIG. 12A, human HD and control brain tissues were fixed in 4% PFA for 24 h, perfused in 30% sucrose for 24 h, and stained with DAPI (nuclei, blue) and 3F3 FMA (red). The expression level of TfR1 is low. There was no difference between HD and control groups. In FIG. 12B, mouse liver tissues and mouse GBM tissues were fixed and stained with DAPI (nuclei, blue) and 3F3 FMA (red). 3F3 FMA was able to recognize mouse TfR1.

mouse liver tissues = test: Staining of normal mouse liver frozen tissue
Description: as §1

B1: 3F3-FMA: Murine monoclonal IgG1 raised against ferroptotic membrane fractions; antigen is transferrin receptor protein 1 (TfR1) (antibody, V domains shown)
VH: EVLLQQSGTELVRPGALVKLSCKASGFNIQDLYIHWVKQRPEQGLEWIGWIDPETDNTIYDPKFQGKASITADTSSNTAYLQLSSLTSEDTAMYYCSTGLLQWYFDVWGAGTAVTVSS
VL: DIVMTQSPSSLAMSIGQKVTMRCKSSQSLLNSYNQKNCLAWYQQKPGQSPKLLLYFVSTRESGVPDRFIGSGSGTDFTLTISSVQAEDLADYFCQQHYSTPLTFGAGTKLELK
amino acid coverage of TfR1 [1]: 53% | confidence of identification of transferrin receptor protein 1 as target antigen [1]: 63% | 3F3-FMA staining upon ferroptosis induction (SK-LMS-1 cells): concentrated at the cell boundaries and became brighter | staining signal in brain tissue (human brain tissues): lack of signal | staining signal in normal liver tissue (mouse liver tissues): robust signal
